Earlier results on one substance are cited in patent US8287850B2, “Conjugates of hydroxyalkyl starch and a protein, prepared by reductive amination” (Fresenius Kabi Deutschland GmbH, priority 2004, dated 2012).

The conditions of the series: cited from earlier work.

As for activated protein C, the “circulatory activity half-life in vivo” value was “less than 30 min”.
